The results in this text go back to patent US9926369B2, “Methods for treating hepatocellular cancer by administering an anti-Ang-2 antibody” (Regeneron Pharmaceuticals, Inc., priority 2009, dated 2018).

Experiment [1] relates to Tie-2 phosphorylation (Ang-2-mediated) in HUVECs. Description: Inhibition of Ang-2-mediated Tie-2 phosphorylation in FOXO1-adenovirus infected HUVECs. The experiment is classed as cell-based, human. The settings on record: antibody 0.5 μg/ml. The method, then: Further, the inventors have shown that infection of HUVECs with an adenovirus encoding FOXO1 results in expression and secretion of Ang-2, followed by activation of Tie-2 phosphorylation (Daly et al. 2006 PNAS 103:15491).
Anti-Ang-2 antibodies were tested for their ability to inhibit Tie-2 phosphorylation. Briefly, 7×10^5 HUVECs (Vec Technologies, Rensselaer, N.Y.) were plated in 6 cm cell culture dishes in 3.5 ml of MCDB131 Complete medium (Vec Technologies, Rensselaer, N.Y.). The following day, the cells were washed with Opti-MEM (Invitrogen Corp., Carlsbad, Calif.) and fed with 2 ml of Opti-MEM. […] Cells were then washed with MCDB131 and fed with 2 ml of MCDB131 containing anti-Ang-2 antibodies at a concentration of 0.5 μg/ml. At twenty hours post infection, cells were lysed and subjected to Tie-2 immunoprecipitation as described by Daly et al., Proc. Natl. Acad. Sci. USA 103:15491-15496 (2006). Immunoglobulin was collected on protein A/G beads (Santa Cruz Biotechnology, Santa Cruz, Calif.) for one hour. Beads were washed with cold lysis buffer and resuspended in SDS sample buffer for analysis by western blot with antibodies specific for phosphotyrosine (Millipore, Billerica, Mass.) or Tie-2. Signals were detected using HRP-conjugated secondary antibodies and ECL reagents (GE Healthcare, Piscataway, N.J.). X-Ray films were scanned and the phospho-Tie-2 and Tie-2 signals were quantified using ImageJ software. The phospho-Tie-2/Tie-2 ratios were used to determine the % inhibition for each anti-Ang-2 antibody (i.e. Percent inhibition=Reduction in phospho-Tie-2/Tie-2 as compared to control).

The subject of experiment [2] is PC3 (Human Prostate Cancer Cell Line) tumors. Put plainly: PC3 mouse tumor model. It counts as in vivo, NCr nude mice. The settings on record: PC3, 2 mg/kg twice per week. Here is the method: Briefly, 5×10^6 PC3 cells in 100 μl of growth factor-reduced Matrigel (BD Biosciences) were injected subcutaneously into the flanks of 6-8 week old male NCr nude mice (Taconic, Hudson, N.Y.). After tumor volumes reached an average of about 200 mm^3, mice were randomized into groups for treatment. […] Tumor volumes were measured twice per week over the course of the experiment and tumor weights were measured upon excision of tumors at the conclusion of the experiment. Averages (mean+/−standard deviation) of tumor weight and growth were calculated for each treatment group. Percent decrease of tumor weight and growth were calculated from comparison to Fc protein measurements.

Experiment [3] deals with COLO 205 (Human Colorectal Adenocarcinoma Cell Line) tumors. Description: COLO 205 mouse tumor model. The experiment is classed as in vivo, mice. The settings on record: COLO 205, NCr nude mice, 4 mg/kg intraperitoneal twice per week; for Avg Tumor Weight: approximately two weeks. The method, then: Briefly, 2×10^6COLO 205 cells in 100 μl of serum-free medium were injected subcutaneously into the flank of 6-8 week old male NCr nude mice (Taconic, Hudson, N.Y.). After tumor volumes reached an average of about 150 mm^3, mice were randomized into groups for treatment with antibody or Fc protein. Mice in each treatment group were administered an anti-Ang-2 antibody or Fc protein at a concentration of 4 mg/kg via intraperitoneal injection twice per week for approximately two weeks. Tumor volumes were measured twice per week over the course of the experiment and tumor weights were measured upon excision of tumors at the conclusion of the experiment. Averages (mean+/−standard deviation) of tumor weight and growth were calculated for each treatment group. “Avg. Tumor Growth” represents the average growth from the time of treatment initiation (when tumors were approximately 150 mm^3). Percent decrease of tumor weight and growth are calculated from comparison to Fc protein measurements.
A similar experiment was carried out to assess the effect of H1H685P, in particular, on COLO 205 tumor growth. Briefly, 2×10^6 COLO 205 cells in 100 μl of serum-free medium were implanted subcutaneously into the right hind flank of 9-11 week-old male SCID CB17 mice. When the tumors reached ˜125 mm^3, mice were randomized into 5 groups (n=7-8 mice/group) and treated twice per week with Fc protein (15 mg/kg), H1H685P (5 or 25 mg/kg) or Control II (5 or 25 mg/kg) for a period of 19 days. Tumor volumes were measured twice per week over the course of the experiment and tumor weights were measured upon excision of tumors at the end of the experiment. Averages of tumor weight and growth from the beginning of treatment were calculated for each group. Percent decrease of tumor weight and growth are calculated from comparison to the Fc control group.
To determine the effect of combining an anti-Ang-2 antibody with a VEGF inhibitor on the growth of COLO 205 xenografts, 2×10^6 cells were implanted subcutaneously into the right hind flank of 6-8 week-old female SCID mice. When the tumors reached an average volume of ˜350 mm^3, mice were randomized into 4 groups (n=6 mice/group) and treated with: human Fc protein (7.5 mg/kg), H1H685P (5 mg/kg), VEGF Trap (see U.S. Pat. No. 7,087,411) (2.5 mg/kg) or the combination of H1H685P+VEGF Trap. Mice were given a total of 3 doses over 10 days of treatment. Tumor volumes were measured twice per week over the course of the experiment. Averages of tumor growth from the start of treatment (mean+/−standard deviation) were calculated for each treatment group. Percent decrease of tumor growth was calculated from comparison to the Fc control group.
To test the effect of H1H685P in combination with a chemotherapeutic agent on tumor growth, 2.5×10^6 COLO 205 tumor cells were implanted subcutaneously into the right hind flank of 8-9 week-old male SCID mice. When the tumors reached an average volume of ˜150 mm^3 (day 17 after implantation), mice were randomized into 4 groups (n=5 mice/group) and treated as follows: the first group was treated sc with 15 mg/kg hFc and intraperitoneally (ip) with 5-FU vehicle; the second group was treated sc with 15 mg/kg of H1H685P; the third group was treated ip with 75 mg/kg of 5-FU; the fourth group was treated with the combination of 15 mg/kg H1H685P sc plus 75 mg/kg 5-FU ip. Mice received a total of three treatments, administered every 3-4 days. Tumor volumes were measured twice per week over the course of the experiment. Average (mean+/−standard deviation) tumor growth from the beginning of treatment until day 38 was calculated for each group. Percent decrease of tumor growth was calculated from comparison to the control group.

Positions count from the first letter of the chain named.

B1: H1H704P: anti-Ang-2 antibody, HCVR/LCVR SEQ ID NOs 186/188 (antibody, V domains shown)
VH: QVQLVESGGDVVQPGRSLRLSCAASGFTFSSYGMHWVRQAPGKGLEWVAIIWYDGSNKYYADSVKGRFTISRDNSKNTLYLQMNSLRVEDTAVYSCARDFSISSRHFDYWGQGTLVTVSS
VL: DIQMTQSPSSLSASVGDRVTITCRASQAINNYLAWFQQKPGKAPKSLIYATSNLQSGVPSQFSGSGSGTDYTLTISSLQPEDFATYYCQQYYIYPITFGQGTRLEIK
For the molecule B1, in experiment [1], the “Inhibition of Tie-2 phosphorylation” value is “+++ (75-100%)” and the “Inhibition of Tie-2 phosphorylation (in words)” value (from here on “Inhibition … (in words)”) is on record as “Especially robust inhibition”.

B2: H1H693P: anti-Ang-2 antibody, HCVR/LCVR SEQ ID NOs 90/92 (antibody, V domains shown)
VH: EVQLVESGGGLVQPGESLRLSCAASGFTFSSYAMSWVRQGPGKGLEWVSSISGSGGTTYYADSVEGRFTISRDNSKNTLYLHMNSLRAEDTAVYYCAKDFLDYSTYLAFDLWGQGTMVTVSS
VL: DIQMTQSPSSVSASVGDRVTITCRASQGISSWLAWYQQKPGKAPKLLIYAASSLQSGVPSRFSGSGSGTDFTLTISSLQPEDFATYYCQQANSFPRTFGQGTKVEIK
Consider B2, for which, in experiment [1], the “Inhibition of Tie-2 phosphorylation” value is listed as “+++ (75-100%)” and the “Inhibition … (in words)” value is “Especially robust inhibition”.

B3: H2M743N: anti-Ang-2 antibody, HCVR/LCVR SEQ ID NOs 410/418 (antibody, V domains shown)
VH: EVQLLESGGGLVQPGGSLRLSCAASGFTFRKYAMSWVRQAPGKGLEWVSVISVSGGNTYYADSVKGRFTISRDNSKNTLYLQLNSLRAEDTAVYYCAKDLTDIVLMVYVDYWGQGTLVTVSS
VL: B2 VL with G28D, S30D, S31R, S77T, F94L, R96F, Q100G
Consider B3, for which, in experiment [2], the “% Decrease in Tumor Growth” value was found to be 50%, the “% Decrease in Tumor Weight” value is on record as 41%, the “Avg Tumor Growth” value came to 179 ± 169 mm^3 and the “Avg Tumor Weight” value is given as 0.372 ± 0.122 g. Also, in experiment [1], the “Inhibition of Tie-2 phosphorylation” value is recorded as “+++ (75-100%)”.

B4: H1M724N: anti-Ang-2 antibody, HCVR/LCVR SEQ ID NOs 266/274 (antibody, V domains shown)
VH: QVQLVESGGGVVQPGRSLRLSCAASGFTLSNYGMHWVRQAPGKGLEWVAVIWHDGSNTYYADSVKGRFTISRDNSKNTLYLQMNSLRAEDTAVYYCTREGLDFWSGYYPNWFDPWGQGTLVTVSS
VL: DIQMTQSPSSLSASVGDRVTITCRASQGIRNDLGWYQQKPGKAPKRLIYAASNLQGGVPSRFSGSGSGTEFTLTISSLQPEDFAAYYCLQHNIYPLTFGGGTKVEIK
As for B4, in experiment [1], the “Inhibition of Tie-2 phosphorylation” value was “+++ (75-100%)” and the “Inhibition … (in words)” value was “Especially robust inhibition”. In addition, in experiment [3], the “% Decrease in Tumor Growth” value is on record as 54%, the “% Decrease in Tumor Weight” value is 37%, the “Avg Tumor Growth” value was 336 ± 125 mm^3 and the “Avg Tumor Weight” value is 0.531 ± 0.103 g.

B5: H1M732N: anti-Ang-2 antibody, HCVR/LCVR SEQ ID NOs 242/250 (antibody, V domains shown)
VH: EVQLVESGGGLVRPGGSLRLSCAASGFTFTNAWMSWVRQAPGKGLEWIGQIKSKTDGGTIDYAAPVKGRFTVSRDDSENTLFLQMNSLKTEDTAVYYCAGNWNYVDFDYWGQGTLVTVSS
VL: B4 VL with G28D, N53S, A85T, I93S, L96F, G100P, E105D
As to B5, the “Inhibition of Tie-2 phosphorylation” value in experiment [1] is “++ (50-75%)”.

B6: H2M742N: anti-Ang-2 antibody, HCVR/LCVR SEQ ID NOs 386/394 (antibody, V domains shown)
VH: DVQLLESGGDLVQPGGSLRLSCEASGFTFRNYVMIWVRQAPGKGLEWVSGISNSGGTTHYTDSVKGRFTISRDNSKNTLYLQINSLRAEDTAVYYCAKGYLDTSLIEGNWFDPWGQGTLVTVSS
VL: NIVMTQSPLSLPVTPGEPASISCRSSQSLLHSNGFNYLNWFLQKPGQSPQLLIYLGSNRASGVPDKFSGSGSGTDFTLNINRVEAEDVGIYFCMQTLQTPLTFGGGTKVEIK
For the molecule B6, in experiment [2], the “% Decrease in Tumor Weight” value is given as 35%, the “Avg Tumor Growth” value is recorded as 220 ± 102 mm^3 and the “Avg Tumor Weight” value was 0.407 ± 0.076 g. Moreover, in experiment [1], the “Inhibition of Tie-2 phosphorylation” value is “++ (50-75%)”. For the same molecule, in experiment [3], the “% Decrease in Tumor Growth” value is 42%, the “% Decrease in Tumor Weight” value amounted to 32%, the “Avg Tumor Growth” value amounted to 427 ± 92 mm^3 and the “Avg Tumor Weight” value came to 0.576 ± 0.057 g.

B7: H2M750N: anti-Ang-2 antibody, HCVR/LCVR SEQ ID NOs 458/466 (antibody, V domains shown)
VH: QVKLVESGGGVVQPGRSLRVSCAASGFTFSSYGMHWVRQAPGKGLEWLAIIWYDGDNKYYSDSVKGRFTISRDNSKNTLYLQMNSLRAEDTAEYYCVRDASIASRFLDYWGQGTLVTVSS
VL: DIQMTQSPSSLSASIGDRVTITCRATQDINNYLAWFQQKPGKAPKSLIYATSNLQSGVPSKFSGSGSGTDYTLTISSLQPEDFSTYYCQQYHSYPLTFGGGTKVEIK
With B7, in experiment [2], the “% Decrease in Tumor Growth” value turned out to be 52%, the “% Decrease in Tumor Weight” value is on record as 37%, the “Avg Tumor Growth” value is 227 ± 195 mm^3 and the “Avg Tumor Weight” value is on record as 0.348 ± 0.128 g. Moreover, in experiment [1], the “Inhibition of Tie-2 phosphorylation” value was “+++ (75-100%)” and the “Inhibition … (in words)” value is listed as “Especially robust inhibition”.
